Square brackets hold non-standard residues; d marks the D form. Ends that are not written are not given here. Met(O) = CS(=O)CC[C@H](N)C(=O)O; pS = N[C@@H](COP(=O)(O)O)C(=O)O
Tests used:
[1] = target: Recombinant bovine HSC70 (Stressgen) (bovine) (UniProt P19120); assay: SPR Biacore 3000, HSC70 immobilised, peptide analyte at 25 uM, 1:1 Langmuir fit
[2] = target: Recombinant bovine HSC70 (Stressgen) (bovine) (UniProt P19120); assay: SPR Biacore 3000, HSC70 immobilised, peptide analyte at 1.56 uM, 1:1 Langmuir fit
[3] = target: Recombinant bovine HSC70 (Stressgen) (bovine) (UniProt P19120); assay: SPR Biacore 3000, HSC70 immobilised, peptide analyte at 12.5 uM, 1:1 Langmuir fit
[4] = target: Recombinant bovine HSC70 (Stressgen) (bovine) (UniProt P19120); assay: SPR Biacore 3000, HSC70 immobilised, peptide analyte at 3.12 uM, 1:1 Langmuir fit
[5] = target: Recombinant bovine HSC70 (Stressgen) (bovine) (UniProt P19120); assay: SPR Biacore 3000, HSC70 immobilised, peptide analyte at 6.25 uM, 1:1 Langmuir fit
[6] = target: Recombinant bovine HSC70 (Stressgen) (bovine) (UniProt P19120); assay: SPR Biacore 3000, HSC70 immobilised on CM5, peptide as analyte 1.56-25 uM, 1:1 Langmuir global fit, 25 C

Sequence of Recombinant bovine HSC70 (Stressgen) (bovine) (P19120 whole entry): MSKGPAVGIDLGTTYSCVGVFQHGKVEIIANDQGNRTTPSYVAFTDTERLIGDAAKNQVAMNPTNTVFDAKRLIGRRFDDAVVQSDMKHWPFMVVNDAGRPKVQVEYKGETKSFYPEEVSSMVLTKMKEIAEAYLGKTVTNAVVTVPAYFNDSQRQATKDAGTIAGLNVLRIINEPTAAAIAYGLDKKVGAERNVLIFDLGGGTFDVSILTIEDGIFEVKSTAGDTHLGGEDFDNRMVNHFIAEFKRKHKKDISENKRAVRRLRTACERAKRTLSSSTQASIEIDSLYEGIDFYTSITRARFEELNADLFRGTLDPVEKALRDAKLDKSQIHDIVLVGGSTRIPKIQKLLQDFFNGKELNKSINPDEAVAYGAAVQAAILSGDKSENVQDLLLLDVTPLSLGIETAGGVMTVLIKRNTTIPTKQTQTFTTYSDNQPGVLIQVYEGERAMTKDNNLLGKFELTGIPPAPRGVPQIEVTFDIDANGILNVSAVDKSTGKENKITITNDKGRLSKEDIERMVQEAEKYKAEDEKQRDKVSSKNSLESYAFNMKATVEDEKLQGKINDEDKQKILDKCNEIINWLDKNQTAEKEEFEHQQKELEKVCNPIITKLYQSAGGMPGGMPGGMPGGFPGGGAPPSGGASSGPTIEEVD

Row | Binder | Ka [1] [M⁻¹] | Kd [1] [µM] | Req [1] [RU] | kobs [1] [s⁻¹] | koff [1] [s⁻¹] | Ka [2] [M⁻¹] | Kd [2] [µM] | Req [2] [RU] | kobs [2] [s⁻¹] | koff [2] [s⁻¹] | Ka [3] [M⁻¹] | Kd [3] [µM] | Req [3] [RU] | kobs [3] [s⁻¹] | koff [3] [s⁻¹] | Ka [4] [M⁻¹] | Kd [4] [µM] | Req [4] [RU] | kobs [4] [s⁻¹] | koff [4] [s⁻¹] | further results
1 | RIH[Met(O)]VYSKR[pS]GKPRGYAFIEY | 524000 | 1.91 | 36.3 | 0.031 | 0.0022 | 524000 | 1.91 | 17.6 | 0.004 | 0.0022 | 524000 | 1.91 | 33.9 | 0.0166 | 0.0022 | 524000 | 1.91 | 24.2 | 0.0058 | 0.0022 | Ka [5]: 524000 M⁻¹; Kd [5]: 1.91 µM; Req [5]: 29.9 RU; kobs [5]: 0.0094 s⁻¹; koff [5]: 0.0022 s⁻¹; kon [6]: 1150 M⁻¹ s⁻¹
2 | RIHMVYSKR[pS]GKPRGYAFIEY [P140 peptide (peptide consisting of SEQ ID NO: 1 in which serine at position 10 is phosphorylated)] | 144000 | 6.94 | 65.2 | 0.0144 | 0.00312 | 144000 | 6.94 | 15.3 | 0.00382 | 0.00312 | 144000 | 6.94 | 53.6 | 0.00874 | 0.00312 | 144000 | 6.94 | 25.8 | 0.00452 | 0.00312 | Ka [5]: 144000 M⁻¹; Kd [5]: 6.94 µM; Req [5]: 39.5 RU; kobs [5]: 0.00593 s⁻¹; koff [5]: 0.00312 s⁻¹; kon [6]: 450 M⁻¹ s⁻¹

— US20160166636A1
